Values of other authors as cited in patent US20030103959A1, “Methods of providing neuroprotection and/or neurorestoration via the neural activin type IIB receptor” (priority 2001, published 2003).

Tested on: quinolinic acid (QA) rat lesion model of Huntington's Disease
Settings: Hughes et al. 1999

B1: recombinant human (rh) activin-A: member of the TGF-β superfamily; 28 kDa disulphide-linked homodimer of two βA subunits (protein, UniProt P08476 311-426, looked up)
Inhibin beta A chain: GLECDGKVNICCKKQFFVSFKDIGWNDWIIAPSGYHANYCEGECPSHIAGTSGSSLSFHSTVINHYRMRGHSPFANLKSCCVPTKLRPMSMLYYDDGQNIIKKDIQNMIVEECGCS
neurotrophic effects after administration: potent neurotrophic effects
